In PMC10171801:

Target: MAGI2 PDZ0-GK (mouse) (UniProt Q9WVQ1)
Assay: ITC

Chain of UniProt Q9WVQ1 (Q9WVQ1 9-238): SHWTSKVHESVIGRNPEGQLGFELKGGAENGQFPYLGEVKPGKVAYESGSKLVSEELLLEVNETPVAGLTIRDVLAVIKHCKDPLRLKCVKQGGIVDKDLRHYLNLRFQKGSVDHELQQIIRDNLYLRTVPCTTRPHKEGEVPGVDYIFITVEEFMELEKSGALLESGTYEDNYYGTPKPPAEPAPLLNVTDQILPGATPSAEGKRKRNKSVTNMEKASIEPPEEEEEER

Substance: pSAPAP1-GBR2(T+5F) (peptide)
- Kd: 70 nM

Substance: pSAPAP1-GBR2(E-1P) (peptide)
- Kd: 70 nM
